B1: CCAAT/enhancer-binding protein beta (Homo sapiens), P17676-2 (parent)
chain: MEVANFYYEADCLAAAYGGKAAPAAPPAARPGPRPPAGELGSIGDHERAIDFSPYLEPLGAPQAPAPATATDTFEAAPPAPAPAPASSGQHHDFLSDLFSDDYGGKNCKKPAEYGYVSLGRLGAAKGALHPGCFAPLHPPPPPPPPPAELKAEPGFEPADCKRKEEAGAPGGGAGMAAGFPYALRAYLGYQAVPSGSSGSLSTSSSSSPPGTPSPADAKAPPTACYAGAAPAPSQVKSKAKKTVDKHSDEYKIRRERNNIAVRKSRDKAKMRNLETQHKVLELTAENERLQKKVEQLSRELSTLRNLFKQLPEPLLASSGHC

This test covers variants of B1. The conditions noted are these: with hdac4_human HDAC4, P56524.
Sequence of hdac4_human HDAC4, P56524 (P56524 whole entry): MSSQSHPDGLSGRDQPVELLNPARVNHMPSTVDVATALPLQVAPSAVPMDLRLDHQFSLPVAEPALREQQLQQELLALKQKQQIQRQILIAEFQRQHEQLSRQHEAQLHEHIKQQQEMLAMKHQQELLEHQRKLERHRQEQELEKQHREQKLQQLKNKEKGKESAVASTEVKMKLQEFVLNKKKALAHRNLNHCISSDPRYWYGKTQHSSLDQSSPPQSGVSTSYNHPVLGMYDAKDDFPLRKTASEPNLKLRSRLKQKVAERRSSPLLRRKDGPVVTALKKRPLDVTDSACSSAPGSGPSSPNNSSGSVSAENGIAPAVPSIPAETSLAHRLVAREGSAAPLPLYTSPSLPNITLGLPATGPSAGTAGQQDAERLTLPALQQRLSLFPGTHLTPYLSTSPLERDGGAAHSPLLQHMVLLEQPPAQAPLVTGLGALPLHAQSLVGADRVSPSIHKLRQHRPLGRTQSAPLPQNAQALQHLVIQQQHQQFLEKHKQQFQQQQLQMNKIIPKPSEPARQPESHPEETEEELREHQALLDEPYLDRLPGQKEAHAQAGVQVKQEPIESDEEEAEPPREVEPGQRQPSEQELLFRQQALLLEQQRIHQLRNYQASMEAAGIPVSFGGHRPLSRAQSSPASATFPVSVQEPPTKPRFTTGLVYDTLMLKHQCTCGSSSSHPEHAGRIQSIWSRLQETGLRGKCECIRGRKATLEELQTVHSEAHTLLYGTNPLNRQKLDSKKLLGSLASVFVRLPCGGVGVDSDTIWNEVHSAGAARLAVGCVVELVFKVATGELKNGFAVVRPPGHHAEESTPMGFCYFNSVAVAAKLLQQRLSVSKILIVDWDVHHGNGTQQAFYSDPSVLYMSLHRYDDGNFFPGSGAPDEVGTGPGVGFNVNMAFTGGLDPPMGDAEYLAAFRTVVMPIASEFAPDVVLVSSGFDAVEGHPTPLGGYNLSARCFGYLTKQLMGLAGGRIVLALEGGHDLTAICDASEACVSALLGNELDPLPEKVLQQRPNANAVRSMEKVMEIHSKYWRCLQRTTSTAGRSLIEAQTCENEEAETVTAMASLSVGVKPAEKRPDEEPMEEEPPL
K151A: the “effect of a mutation on the interaction” value is on record as “with no effect”.

(Values after IntAct's records for PubMed 18820298.)
